Measurements published in PMC11210774, “Critical domains for NACC2-NTRK2 fusion protein activation” (PLOS ONE, 2024).
One block for each molecule: values may come before it.

Legend:
NACC2(D31N/R45Q)-NTRK2 [1] = target: NACC2(D31N/R45Q)-NTRK2 (UniProt Q96BF6); assay: non-reducing SDS-PAGE and immunoblot of multimers; HEK293T lysates in E1A buffer (250 mM NaCl, 50 mM HEPES, 5 mM EDTA, 0.1% NP-40); non-reducing sample buffer (4% SDS, 10 mM NaPO4 pH 7.0); immunoblot for NACC2 or NTRK2; multimer/monomer band ratio by ImageJ, three replicates
NACC2(Y86A)-NTRK2 [2] = target: NACC2(Y86A)-NTRK2 (UniProt Q96BF6); assay: as above
[3] = target: NACC2-NTRK2(ex4:ex13) fusion protein (UniProt Q96BF6); assay: as above
[4] = target: NACC2-NTRK2(ex4:ex13) fusion protein (UniProt Q96BF6); assay: co-IP; fusion protein co-expressed with NACC2 in HEK293T; E1A buffer; immunoprecipitation with antibodies against NTRK2 and Protein A-Sepharose at 4°C, immunoblot for NACC2; ratio of NACC2 to the co-immunoprecipitated fusion by ImageJ
NACC2(Y86A)-NTRK2 [5] = target: NACC2(Y86A)-NTRK2 (UniProt Q96BF6); assay: as above
NACC2(D31N/R45Q)-NTRK2 [6] = target: NACC2(D31N/R45Q)-NTRK2 (UniProt Q96BF6); assay: as above
[7] = target: the molecule itself; assay: non-reducing SDS-PAGE and immunoblot of multimers; HEK293T lysates in E1A buffer (250 mM NaCl, 50 mM HEPES, 5 mM EDTA, 0.1% NP-40); non-reducing sample buffer (4% SDS, 10 mM NaPO4 pH 7.0); immunoblot for NACC2 or NTRK2; multimer/monomer band ratio by ImageJ, three replicates

ratio of the multimer band to the monomer band (NACC2(D31N/R45Q)-NTRK2 [1]): 18%
Molecule: NACC2(D31N/R45Q)-NTRK2 (from UniProt Q96BF6 1-418; Q16620 397-822)

ratio of the multimer band to the monomer band (NACC2(Y86A)-NTRK2 [2]): 12%
Molecule: NACC2(Y86A)-NTRK2 (from UniProt Q96BF6 1-418; Q16620 397-822)

ratio of the multimer band to the monomer band [3]: 44%
Molecule: NACC2-NTRK2(ex4:ex13) fusion protein (from UniProt Q96BF6 1-418; Q16620 397-822)

ratio of NACC2 to the NACC2-NTRK2 fusion with which it was co-immunoprecipitated [4]: 72%
ratio of NACC2 to the NACC2-NTRK2 fusion with which it was co-immunoprecipitated (NACC2(Y86A)-NTRK2 [5]): 15%
ratio of NACC2 to the NACC2-NTRK2 fusion with which it was co-immunoprecipitated (NACC2(D31N/R45Q)-NTRK2 [6]): 45%
B1: Nucleus Accumbens-associated protein 2 (NACC2), wild type (natural protein, human, UniProt Q96BF6 1-587, looked up)
chain: MSQMLHIEIPNFGNTVLGCLNEQRLLGLYCDVSIVVKGQAFKAHRAVLAASSLYFRDLFSGNSKSAFELPGSVPPACFQQILSFCYTGRLTMTASEQLVVMYTAGFLQIQHIVERGTDLMFKVSSPHCDSQTAVIEDAGSEPQSPCNQLQPAAAAAAPYVVSPSVPIPLLTRVKHEAMELPPAGPGLAPKRPLETGPRDGVAVAAGAAVAAGTAPLKLPRVSYYGVPSLATLIPGIQQMPYPQGERTSPGASSLPTTDSPTSYHNEEDEEDDEAYDTMVEEQYGQMYIKASGSYAVQEKPEPVPLESRSCVLIRRDLVALPASLISQIGYRCHPKLYSEGDPGEKLELVAGSGVYITRGQLMNCHLCAGVKHKVLLRRLLATFFDRNTLANSCGTGIRSSTSDPSRKPLDSRVLNAVKLYCQNFAPSFKESEMNVIAADMCTNARRVRKRWLPKIKSMLPEGVEMYRTVMGSAAASVPLDPEFPPAAAQVFEQRIYAERRGDAATIVALRTDAVNVDLSAAANPAFDAGEEVDGAGSVIQEVAAPEPLPADGQSPPQPFEQGGGGPSRPQTPAAAARRPEGTYAGTL
notes: NACC2, human, wild type; gene bought from Origene and subcloned into pCDNA3 by EcoRI and XbaI; Expressed alone (multimerization assay) or together with the fusion proteins (co-IP); also called wild-type NACC2; native NACC2; source: HEK293T, transfected (pCDNA3, CaCl2), in lysate (E1A buffer)
ratio of the multimer band to the monomer band [7]: 7%
